Changes are numbered by the printed parent chain.
T1: human PTK7 on human cancer cell lines (human, UniProt Q13308 31-1070)
T1 construct: Endogenous PTK7 of human tumour cell lines; also called PTK7 on A-431, NCI-H520, NCI-N87, SK-OV-3, BT-20, HCC1954, NCI-H226, NCI-H358, HCT116, PC-3, NCI-H292, NCI-H1975 cells
T1 sequence: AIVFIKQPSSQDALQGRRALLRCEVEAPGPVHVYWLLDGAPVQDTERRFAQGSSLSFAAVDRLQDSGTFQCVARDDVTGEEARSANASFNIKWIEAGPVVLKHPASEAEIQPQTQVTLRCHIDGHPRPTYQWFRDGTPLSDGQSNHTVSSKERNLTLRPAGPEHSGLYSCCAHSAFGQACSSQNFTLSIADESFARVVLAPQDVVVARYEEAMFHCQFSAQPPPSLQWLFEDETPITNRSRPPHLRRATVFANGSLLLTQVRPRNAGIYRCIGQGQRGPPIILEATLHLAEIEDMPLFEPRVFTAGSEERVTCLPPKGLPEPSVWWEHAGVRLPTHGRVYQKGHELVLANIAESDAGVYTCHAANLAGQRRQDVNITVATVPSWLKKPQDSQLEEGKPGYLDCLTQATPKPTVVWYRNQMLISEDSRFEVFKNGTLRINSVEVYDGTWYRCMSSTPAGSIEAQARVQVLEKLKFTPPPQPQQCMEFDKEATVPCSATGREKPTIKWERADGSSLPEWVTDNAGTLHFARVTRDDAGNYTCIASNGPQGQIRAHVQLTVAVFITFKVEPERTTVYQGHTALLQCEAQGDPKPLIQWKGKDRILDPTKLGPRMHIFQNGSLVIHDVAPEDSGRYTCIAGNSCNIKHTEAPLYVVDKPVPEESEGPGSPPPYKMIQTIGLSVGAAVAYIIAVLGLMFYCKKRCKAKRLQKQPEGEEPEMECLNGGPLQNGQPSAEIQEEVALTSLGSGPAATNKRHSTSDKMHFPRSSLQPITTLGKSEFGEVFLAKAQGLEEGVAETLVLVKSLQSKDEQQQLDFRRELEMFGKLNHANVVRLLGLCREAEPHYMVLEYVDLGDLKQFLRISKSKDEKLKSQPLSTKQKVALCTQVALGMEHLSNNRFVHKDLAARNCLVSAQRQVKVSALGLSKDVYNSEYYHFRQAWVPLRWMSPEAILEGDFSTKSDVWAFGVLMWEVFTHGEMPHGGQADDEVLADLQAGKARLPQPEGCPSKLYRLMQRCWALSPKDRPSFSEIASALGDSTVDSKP

T2: dog PTK7 on dog cancer cell lines (dog, UniProt A0A8I3N574 31-1070)
T2 construct: whole, on cells; Endogenous protein on dog tumour cell lines; also called PTK7 on CMT-U27 and D-17 cells; dog cancer cells
T2 sequence: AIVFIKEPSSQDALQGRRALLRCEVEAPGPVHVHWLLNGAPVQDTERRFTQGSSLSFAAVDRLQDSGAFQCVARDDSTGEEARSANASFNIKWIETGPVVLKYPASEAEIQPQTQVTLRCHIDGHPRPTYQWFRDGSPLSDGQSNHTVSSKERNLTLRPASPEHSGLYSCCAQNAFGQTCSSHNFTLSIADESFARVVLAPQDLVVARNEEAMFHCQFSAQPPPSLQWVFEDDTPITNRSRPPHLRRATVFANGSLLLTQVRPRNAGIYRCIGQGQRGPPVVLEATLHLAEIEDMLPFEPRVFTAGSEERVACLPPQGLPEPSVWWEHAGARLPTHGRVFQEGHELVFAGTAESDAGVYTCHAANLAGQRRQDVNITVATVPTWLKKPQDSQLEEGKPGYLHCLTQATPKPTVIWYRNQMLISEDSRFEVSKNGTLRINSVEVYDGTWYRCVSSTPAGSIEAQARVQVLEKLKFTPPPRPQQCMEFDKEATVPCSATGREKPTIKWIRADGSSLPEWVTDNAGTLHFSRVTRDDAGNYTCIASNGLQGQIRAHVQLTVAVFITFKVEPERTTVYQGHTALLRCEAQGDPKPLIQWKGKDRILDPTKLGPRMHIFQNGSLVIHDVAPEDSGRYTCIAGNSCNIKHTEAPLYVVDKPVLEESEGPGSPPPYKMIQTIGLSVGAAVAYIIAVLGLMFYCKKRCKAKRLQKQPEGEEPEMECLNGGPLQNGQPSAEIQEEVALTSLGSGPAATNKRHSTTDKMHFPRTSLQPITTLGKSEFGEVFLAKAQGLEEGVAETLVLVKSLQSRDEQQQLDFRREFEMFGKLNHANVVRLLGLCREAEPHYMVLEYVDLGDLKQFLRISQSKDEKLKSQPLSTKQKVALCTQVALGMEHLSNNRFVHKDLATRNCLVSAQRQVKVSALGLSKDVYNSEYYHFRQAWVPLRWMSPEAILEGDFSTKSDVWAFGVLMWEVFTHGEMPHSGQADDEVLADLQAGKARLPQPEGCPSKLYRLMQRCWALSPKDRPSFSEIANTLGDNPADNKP

B1: 1A7 (antibody, human IgG1, V domains shown)
VH: QVQLVESGGGVVQPGRSLRLSCAASGFTFSNYGMHWVRQAPGKGLEWVAVIYYDGSNKFYADSVKGRFTISRDNSKNTLYLQMSSLRAEDTAVYYCARDVAPPGSRAEYFHHWGQGTLVTVSS
VL: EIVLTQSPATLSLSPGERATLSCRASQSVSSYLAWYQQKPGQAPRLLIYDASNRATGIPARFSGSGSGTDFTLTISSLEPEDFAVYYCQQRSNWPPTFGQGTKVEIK
notes: also called anti-PTK7 antibody 1A7
B2: 2A5 (antibody, V domains shown)
VH: B1 VH with E6Q, Y52W, S56R, F59Y, S84N, P103A, H111Q, H112N
VL: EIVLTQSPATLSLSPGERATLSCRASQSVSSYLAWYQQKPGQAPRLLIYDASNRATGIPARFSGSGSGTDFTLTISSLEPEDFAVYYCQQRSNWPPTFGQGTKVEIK
notes: also called anti-PTK7 antibody 2A5
B3: 2D11 (antibody, V domains shown)
VH: B1 VH with N31S, Y52F, F59Y, S84N, A92S, P102A, H111Q, H112N
VL: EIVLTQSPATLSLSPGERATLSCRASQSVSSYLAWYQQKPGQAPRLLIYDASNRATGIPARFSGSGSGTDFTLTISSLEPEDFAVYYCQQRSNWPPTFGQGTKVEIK
notes: also called anti-PTK7 antibody 2D11
B4: 2F5 (antibody, V domains shown)
VH: B1 VH with A23V, V50I, F59Y, S84N, P102A, P103A, F110L
VL: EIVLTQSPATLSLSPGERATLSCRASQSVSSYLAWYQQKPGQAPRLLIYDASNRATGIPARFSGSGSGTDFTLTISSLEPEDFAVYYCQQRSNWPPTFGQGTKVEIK
notes: also called anti-PTK7 antibody 2F5
B5: 1F2 (antibody, V domains shown)
VH: QVQLVQSGGGLVQPGGSLRLSCAASGFTFSRYEMNWVRQAPGKGLEWVSYINSIGSAINYADSVKGRFTISRDNAKNSLYLQMRSLRAEDTAVYYCVREDNWNPGYWGQGTLVTVSS
VL: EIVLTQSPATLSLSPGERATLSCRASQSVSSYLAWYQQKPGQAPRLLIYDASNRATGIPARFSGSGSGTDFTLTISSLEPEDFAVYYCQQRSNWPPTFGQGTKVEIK
notes: also called anti-PTK7 antibody 1F2
B6: 3C4 (antibody, V domains shown)
VH: QVQLEQSRAEVKKPGESLRISCKGSGYSFTSYWISWVRQMPGKGLEWMGRIDPSDSYTNYNPSFQGHVTISADKSISTAYLQWSSLKASDTAMYYCARRDGSYFDFDYWGQGTLVTVSS
VL: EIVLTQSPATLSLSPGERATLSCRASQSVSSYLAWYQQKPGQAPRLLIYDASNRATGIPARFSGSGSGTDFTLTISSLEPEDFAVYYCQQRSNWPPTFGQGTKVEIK
notes: also called anti-PTK7 antibody 3C4
B7: 3E6 (antibody, V domains shown)
VH: B6 VH with E5V, Q6E, R8G, K23R, N59K, N61S, S102D
VL: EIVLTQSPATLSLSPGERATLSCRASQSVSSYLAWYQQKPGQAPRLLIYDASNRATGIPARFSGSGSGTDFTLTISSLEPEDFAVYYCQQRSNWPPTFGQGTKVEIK
notes: also called anti-PTK7 antibody 3E6
B8: 1A11 (antibody, V domains shown)
VH: QVQLVQSGPGLVKPSETLSLTCTVSGGSINSYYWNWIRQPPGKGLEWIGYIYYSGSTNYNPSLKSRVTISVDTSKNQFSLKLSSVTAADTAVYYCARDPHDYIRGHFDLWGRGTLFTVSS
VL: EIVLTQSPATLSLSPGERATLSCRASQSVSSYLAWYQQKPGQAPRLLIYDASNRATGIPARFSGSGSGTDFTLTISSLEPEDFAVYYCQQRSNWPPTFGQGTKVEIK
notes: also called anti-PTK7 antibody 1A11

Target: T1, human PTK7 on human cancer cell lines
Experiment: flow cytometry, HCT116 cells, Ab 5 ug/mL
Method: (§1) The binding activity of anti-PTK7 antibodies to cancer cell lines was verified by flow cytometry. […] Purified anti-PTK7 antibody with a concentration of 5 μg/mL was added to each well and was incubated at 4° C. for 30 minutes. […] The cells were collected, and the mean fluorescence intensity (MFI) was determined. Human IgG1 was used as ISO control.

| Binder | MFI |
| --- | --- |
| B1 | 115000 |
| B2 | 234000 |
| B3 | 287000 |
| B4 | 133000 |
| B5 | 149000 |
| B6 | 230000 |
| B7 | 339000 |
| B8 | 260000 |

Target: T1, human PTK7 on human cancer cell lines
Experiment: flow cytometry, NCI-H358 cells, Ab 5 ug/mL
Method: as §1

| Binder | MFI |
| --- | --- |
| B1 | 52900 |
| B2 | 87700 |
| B3 | 103000 |
| B4 | 51900 |
| B5 | 33900 |
| B6 | 98800 |
| B7 | 117000 |
| B8 | 89400 |

Target: T2, dog PTK7 on dog cancer cell lines
Experiment: flow cytometry, CMT-U27 dog cells, Ab 5 ug/mL
Method: as §1

| Binder | MFI |
| --- | --- |
| B1 | 56700 |
| B2 | 76400 |
| B3 | 72200 |
| B4 | 81300 |
| B5 | 45800 |
| B6 | 37400 |
| B7 | 94500 |
| B8 | 75600 |

Target: T1, human PTK7 on human cancer cell lines
Experiment: flow cytometry, NCI-H292 cells, Ab 5 ug/mL
Method: as §1

| Binder | MFI |
| --- | --- |
| B1 | 43500 |
| B2 | 92000 |
| B3 | 134000 |
| B4 | 44500 |
| B5 | 69300 |
| B6 | 92400 |
| B7 | 141000 |
| B8 | 125000 |

Target: T1, human PTK7 on human cancer cell lines
Experiment: flow cytometry, PC-3 cells, Ab 5 ug/mL
Method: as §1

| Binder | MFI |
| --- | --- |
| B1 | 32500 |
| B2 | 60700 |
| B3 | 73000 |
| B4 | 32400 |
| B5 | 34900 |
| B6 | 66700 |
| B7 | 94600 |
| B8 | 67200 |
